Measured values from article PMC3236591, “Central domain deletions affect the SAXS solution structure and function of Yeast Hsp40 proteins Sis1 and Ydj1” (BMC Structural Biology, 2011).

B1: Sis1_Δ124-174 (natural protein, yeast, UniProt P25294 1-352, looked up)
chain: MVKETKLYDLLGVSPSANEQELKKGYRKAALKYHPDKPTGDTEKFKEISEAFEILNDPQKREIYDQYGLEAARSGGPSFGPGGPGGAGGAGGFPGGAGGFSGGHAFSNEDAFNIFSQFFGGSSTYPEEETVQVNLPVSLEDLFVGKKKSFKIGRKGPHGASEKTQIDIQLKPGWKAGTKITYKNQGDYNPQTGRRKTLQFVIQEKSHPNFKRDGDDLIYTLPLSFKESLLGFSKTIQTIDGRTLPLSRVQPVQPSQTSTYPGQGMPTPKNPSQRGNLIVKYKVDYPISLNDAQKRAIDENF
notes: Sis1, yeast Type II Hsp40 (352 residues), residues 124 to 174 (G/M region) deleted; also called Sis1 G/M deletion mutant; source: E. coli BL21(DE3)pLys, purified (Macro-prep High S cation exchange, hydroxyapatite)
B2: Ydj1_Δ106-255 (natural protein)
chain: not shown
notes: Ydj1, yeast Type I Hsp40 (409 residues), residues 106 to 255 (ZFLR and CTDI) deleted; also called Ydj1 ZFLR plus CTDI deletion mutant; source: E. coli BL21(DE3), purified (Macro-prep High Q anion exchange, hydroxyapatite, Superdex 200 SEC)
B3: Sis1_Δ121-257 (natural protein, yeast, UniProt P25294 1-352, looked up)
chain: MVKETKLYDLLGVSPSANEQELKKGYRKAALKYHPDKPTGDTEKFKEISEAFEILNDPQKREIYDQYGLEAARSGGPSFGPGGPGGAGGAGGFPGGAGGFSGGHAFSNEDAFNIFSQFFGHPNFKRDGDDLIYTLPLSFKESLLGFSKTIQTIDGRTLPLSRVQPVQPSQTSTYPGQGMPTPKNPSQRGNLIVKYKVDYPISLNDAQKRAIDENF
notes: Sis1, yeast Type II Hsp40 (352 residues), residues 121 to 257 (G/M and CTDI) deleted; also called Sis1 G/M plus CTDI deletion mutant; source: E. coli BL21(DE3)pLys, purified (Macro-prep High S cation exchange, hydroxyapatite)
B4: Sis1 (natural protein, yeast, UniProt P25294 1-352, looked up)
chain: MVKETKLYDLLGVSPSANEQELKKGYRKAALKYHPDKPTGDTEKFKEISEAFEILNDPQKREIYDQYGLEAARSGGPSFGPGGPGGAGGAGGFPGGAGGFSGGHAFSNEDAFNIFSQFFGGSSPFGGADDSGFSFSSYPSGGGAGMGGMPGGMGGMHGGMGGMPGGFRSASSSPTYPEEETVQVNLPVSLEDLFVGKKKSFKIGRKGPHGASEKTQIDIQLKPGWKAGTKITYKNQGDYNPQTGRRKTLQFVIQEKSHPNFKRDGDDLIYTLPLSFKESLLGFSKTIQTIDGRTLPLSRVQPVQPSQTSTYPGQGMPTPKNPSQRGNLIVKYKVDYPISLNDAQKRAIDENF
notes: Sis1, yeast Type II Hsp40, 352 residues (J-domain, G/F, G/M, CTDI, CTDII); also called Type II Hsp40; full length Sis1 protein; source: recombinant, purified (Macro-prep High S cation exchange, hydroxyapatite)

Target: the molecule itself
Test: SAXS; 2.75 to 7.1 mg/mL protein in 25 mM Tris-HCl pH 7.5, 500 mM NaCl; molecular mass from I(0) against a BSA standard

Question: For B1, which “stoichiometry N” value is on record?
Answer: 2

Question: Which “stoichiometry N” value does the source give for B2 here?
Answer: 2

Question: B3 was tested. Which “stoichiometry N” value did it give?
Answer: 2

Question: For B4, which “stoichiometry N” value is on record?
Answer: 2

Target: T1, heated luciferase (UniProt P08659 1-550 = luciferase)
T1 construct: luciferase, heat-denatured, used as client protein; Heat-denatured in the assay; Firefly luciferase is surmised; also called heated denaturated luciferase; denatured luciferase
T1 sequence (P08659 whole entry): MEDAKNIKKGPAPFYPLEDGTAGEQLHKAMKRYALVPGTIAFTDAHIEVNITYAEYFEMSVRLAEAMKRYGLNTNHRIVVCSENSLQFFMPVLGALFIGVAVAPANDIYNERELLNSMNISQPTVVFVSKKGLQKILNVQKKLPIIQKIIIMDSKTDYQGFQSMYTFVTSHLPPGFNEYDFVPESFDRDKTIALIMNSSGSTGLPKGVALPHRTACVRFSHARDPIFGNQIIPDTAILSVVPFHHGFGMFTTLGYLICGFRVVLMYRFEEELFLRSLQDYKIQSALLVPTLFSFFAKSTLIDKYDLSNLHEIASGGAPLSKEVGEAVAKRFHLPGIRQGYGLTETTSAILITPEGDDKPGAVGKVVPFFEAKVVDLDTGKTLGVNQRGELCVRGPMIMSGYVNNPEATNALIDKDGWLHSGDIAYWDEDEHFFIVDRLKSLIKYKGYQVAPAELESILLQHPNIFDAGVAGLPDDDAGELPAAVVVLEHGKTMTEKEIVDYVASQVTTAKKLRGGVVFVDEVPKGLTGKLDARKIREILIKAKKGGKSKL
Test: not stated; binding of Hsp40s to heated denatured luciferase as previously described (refs 15, 21); Sis1 binding set as standard (100%)

Question: B1 was tested. Which “percent of Sis1 binding to heated luciferase” value (shortened to “percent of Sis1 binding”) did it give?
Answer: ~60%

Question: With B2 as the binder, how does the “percent of Sis1 binding” value read?
Answer: ~40%

Question: B3 was tested. Which “percent of Sis1 binding” value did it give?
Answer: ~40%
